# Data from article PMC11472164.
# T1: trFANCM (translocase domain) (UniProt Q8IYD8 82-647)
# T1 sequence: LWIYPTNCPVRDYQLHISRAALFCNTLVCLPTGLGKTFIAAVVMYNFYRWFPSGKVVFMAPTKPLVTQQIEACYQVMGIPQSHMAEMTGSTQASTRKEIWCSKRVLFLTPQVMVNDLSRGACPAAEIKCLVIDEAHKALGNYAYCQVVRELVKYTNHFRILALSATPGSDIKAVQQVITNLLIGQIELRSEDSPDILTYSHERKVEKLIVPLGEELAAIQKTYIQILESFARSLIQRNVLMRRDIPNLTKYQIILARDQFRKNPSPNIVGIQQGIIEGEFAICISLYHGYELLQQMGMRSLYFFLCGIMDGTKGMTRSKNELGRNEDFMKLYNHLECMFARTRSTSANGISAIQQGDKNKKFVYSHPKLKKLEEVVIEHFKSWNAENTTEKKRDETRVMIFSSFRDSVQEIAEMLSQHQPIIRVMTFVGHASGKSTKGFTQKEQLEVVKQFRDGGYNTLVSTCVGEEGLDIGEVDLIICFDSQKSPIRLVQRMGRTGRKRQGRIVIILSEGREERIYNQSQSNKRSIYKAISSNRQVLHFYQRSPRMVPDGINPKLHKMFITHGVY
# T2: trFANCM-deltaHel2i (UniProt Q8IYD8 82-647, del298-443)
# T2 sequence: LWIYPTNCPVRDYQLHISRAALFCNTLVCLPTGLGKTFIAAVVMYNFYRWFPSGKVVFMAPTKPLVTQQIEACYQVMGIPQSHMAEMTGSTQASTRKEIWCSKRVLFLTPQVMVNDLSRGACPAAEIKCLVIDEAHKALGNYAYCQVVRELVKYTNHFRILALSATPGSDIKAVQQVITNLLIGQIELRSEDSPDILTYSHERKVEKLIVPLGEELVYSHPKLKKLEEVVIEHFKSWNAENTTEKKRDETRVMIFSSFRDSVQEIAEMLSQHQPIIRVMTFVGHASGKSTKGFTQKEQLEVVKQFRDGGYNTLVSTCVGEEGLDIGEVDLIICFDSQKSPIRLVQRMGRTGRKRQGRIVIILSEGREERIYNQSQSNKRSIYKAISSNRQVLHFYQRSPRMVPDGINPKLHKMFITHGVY
# How the values were obtained:
# Test in all cases: EMSA
# [1] = molecular target: T1, trFANCM (translocase domain)
# [2] = molecular target: FANCMc-deltaHel2i (UniProt Q8IYD8;Q8N2Z9;A8MT69;Q9BTP7 1-297+444-2048;1-138;1-81;1-215, internal_change)
# [3] = molecular target: FANCMc (full-length FANCM complex) (UniProt Q8IYD8;Q8N2Z9;A8MT69;Q9BTP7 1-2048;1-138;1-81;1-215)
# [4] = molecular target: T2, trFANCM-deltaHel2i
binder,measurement,setting,value
"30 bp static (non-migratable) Holliday junction, X0s1-4, IRDye700 (structured_DNA) DNA 1: TACCAGTGCCTTGCTAGGACATCTTTGCCCAC DNA 2: GTGGGCAAAGATGTCCATCTGTTGTAATCGTC DNA 3: GACGATTACAACAGATCATGGAGCTGTCTAGA DNA 4: TCTAGACAGCTCCATGTAGCAAGGCACTGGTA",binding result,[1],binds
same,binding result,[2],binds
same,binding result,[3],binds
same,binding signal,[4],> 60 fold reduction vs trFANCM
